In patent publication US20050118674A1, “Engineering of Controlled Deamidation Rates in Peptides, Proteins, and Similar Structures” (priority 2003, published 2005):
Where no end group is shown, it is not given here.

assay: First-order nonenzymatic deamidation of pentapeptides in Tris buffer; format: physicochemical; details: pH 7.4, 37.0° C., 0.15 M Tris HCl; Asn pentapeptides
How it was run: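 First-order deamidation rates determined for XxxAsnYyy and XxxGlnYyy pentapeptides in 0.15 M Tris buffer, pH 7.4, 37° C. Not all values were measured directly: several Asn rates were estimated and most Gln rates came from surface fitting.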

Substance | First-Order Deamidation Halftimes of GlyXxxAsnYyyGly
GlyCysAsnHisGly (GCNHG; printed: GlyCysAsnHisGly) | 10.8 days
GlySerAsnTyrGly (GSNYG; printed: GlySerAsnTyrGly) | 64.7 days
GlyValAsnGlyGly (GVNGG; printed: GlyValAsnGlyGly) | 1.23 days
GlyCysAsnSerGly (GCNSG; printed: GlyCysAsnSerGly) | 19.0 days
GlyLeuAsnHisGly (GLNHG; printed: GlyLeuAsnHisGly) | 10.7 days
GlyAlaAsnSerGly (GANSG; printed: GlyAlaAsnSerGly) | 14.9 days
GlyProAsnAlaGly (GPNAG; printed: GlyProAsnAlaGly) | 31.8 days
GlySerAsnCysGly (GSNCG; printed: GlySerAsnCysGly) | 60.2 days
GlyGlyAsnAspGly (GGNDG; printed: GlyGlyAsnAspGly) | 28.0 days
GlyValAsnProGly (GVNPG; printed: GlyValAsnProGly) | 8030 days
GlyTyrAsnGlyGly (GYNGG; printed: GlyTyrAsnGlyGly) | 1.49 days
GlyHisAsnSerGly (GHNSG; printed: GlyHisAsnSerGly) | 15.7 days
GlyIleAsnMetGly (GINMG; printed: GlyIleAsnMetGly) | 58.8 days
GlyAmCysAsnSerGly (CNSG; not fully specified (N-terminus); printed as GlyAmCysAsnSerGly) | 15.4 days
GlyLeuAsnThrGly (GLNTG; printed: GlyLeuAsnThrGly) | 46.1 days
GlyAspAsnValGly (GDNVG; printed: GlyAspAsnValGly) | 241 days
GlyProAsnIleGly (GPNIG; printed: GlyProAsnIleGly) | 455 days
GlyAspAsnArgGly (GDNRG; printed: GlyAspAsnArgGly) | 87.2 days
GlyArgAsnAlaGly (GRNAG; printed: GlyArgAsnAlaGly) | 24.4 days
GlyTyrAsnIleGly (GYNIG; printed: GlyTyrAsnIleGly) | 306 days

Substance | First-Order Deamidation Halftimes of GlyXxxAsnYyyGly
GlyProAsnGlyGly (GPNGG; printed: GlyProAsnGlyGly) | 1.18 days
GlyAlaAsnArgGly (GANRG; printed: GlyAlaAsnArgGly) | 62.4 days
GlyProAsnHisGly (GPNHG; printed: GlyProAsnHisGly) | 12.8 days
GlyProAsnGluGly (GPNEG; printed: GlyProAsnGluGly) | 92.0 days
GlyThrAsnArgGly (GTNRG; printed: GlyThrAsnArgGly) | 51.2 days
GlyAmCysAsnMetGly (CNMG; not fully specified (N-terminus); printed as GlyAmCysAsnMetGly) | 56.5 days
GlyGluAsnAlaGly (GENAG; printed: GlyGluAsnAlaGly) | 25.8 days
GlyPheAsnTrpGly (GFNWG; printed: GlyPheAsnTrpGly) | 102 days
GlyTrpAsnTyrGly (GWNYG; printed: GlyTrpAsnTyrGly) | 92.6 days
GlyAspAsnGluGly (GDNEG; printed: GlyAspAsnGluGly) | 46.8 days
GlyMetAsnGluGly (GMNEG; printed: GlyMetAsnGluGly) | 72.4 days
GlySerAsnValGly (GSNVG; printed: GlySerAsnValGly) | 233 days
GlyTyrAsnAmCysGly | 33.3 days
GlySerAsnIleGly (GSNIG; printed: GlySerAsnIleGly) | 285 days
GlyValAsnPheGly (GVNFG; printed: GlyValAsnPheGly) | 66.6 days
GlyGluAsnSerGly (GENSG; printed: GlyGluAsnSerGly) | 16.4 days
GlyTrpAsnHisGly (GWNHG; printed: GlyTrpAsnHisGly) | 11.3 days
GlyLeuAsnArgGly (GLNRG; printed: GlyLeuAsnArgGly) | 62.1 days
GlyAmCysAsnAmCysGly | 39.3 days
GlyAmCysAsnGlyGly (CNGG; not fully specified (N-terminus); printed as GlyAmCysAsnGlyGly) | 1.14 days

same assay, conditions: pH 7.4, 37.0 ° C., 0.15 M Tris HCl; Gln pentapeptides; 52 values measured, rest derived from surface fitting

Substance | First-Order Deamidation Halftimes of GlyXxxGlnYyyGly
GlyArgGlnProGly (GRQPG; printed: GlyArgGlnProGly) | 8100 days
GlyHisGlnTyrGly (GHQYG; printed: GlyHisGlnTyrGly) | 14000 days
GlyLeuGlnHisGly (GLQHG; printed: GlyLeuGlnHisGly) | 6100 days
GlyValGlnIleGly (GVQIG; printed: GlyValGlnIleGly) | 5600 days
GlyAspGlnValGly (GDQVG; printed: GlyAspGlnValGly) | 6600 days
GlyIleGlnArgGly (GIQRG; printed: GlyIleGlnArgGly) | 7200 days
GlyTrpGlnGlyGly (GWQGG; printed: GlyTrpGlnGlyGly) | 850 days
GlyProGlnPheGly (GPQFG; printed: GlyProGlnPheGly) | 7300 days
GlyMetGlnProGly (GMQPG; printed: GlyMetGlnProGly) | 7300 days
GlySerGlnValGly (GSQVG; printed: GlySerGlnValGly) | 6800 days
GlyGlyGlnHisGly (GGQHG; printed: GlyGlyGlnHisGly) | 5900 days
GlyTrpGlnTyrGly (GWQYG; printed: GlyTrpGlnTyrGly) | 14000 days
GlyAlaGlnSerGly (GAQSG; printed: GlyAlaGlnSerGly) | 5200 days
GlyThrGlnLeuGly (GTQLG; printed: GlyThrGlnLeuGly) | 5200 days
GlySerGlnLeuGly (GSQLG; printed: GlySerGlnLeuGly) | 6100 days
GlyLysGlnProGly (GKQPG; printed: GlyLysGlnProGly) | 7700 days

Substance | First-Order Deamidation Halftimes of GlyXxxGlnYyyGly
GlyProGlnProGly (GPQPG; printed: GlyProGlnProGly) | 8900 days
GlyValGlnThrGly (GVQTG; printed: GlyValGlnThrGly) | 4300 days
GlyLeuGlnLysGly (GLQKG; printed: GlyLeuGlnLysGly) | 6100 days
GlyGlyGlnAlaGly (GGQAG; printed: GlyGlyGlnAlaGly) | 5900 days
GlyTrpGlnThrGly (GWQTG; printed: GlyTrpGlnThrGly) | 5600 days
GlySerGlnPheGly (GSQFG; printed: GlySerGlnPheGly) | 8300 days
GlyThrGlnMetGly (GTQMG; printed: GlyThrGlnMetGly) | 3700 days
GlyLysGlnLysGly (GKQKG; printed: GlyLysGlnLysGly) | 4000 days
GlyTyrGlnTrpGly (GYQWG; printed: GlyTyrGlnTrpGly) | 18000 days
GlyProGlnIleGly (GPQIG; printed: GlyProGlnIleGly) | 6000 days
GlyValGlnTyrGly (GVQYG; printed: GlyValGlnTyrGly) | 9700 days
GlyValGlnTrpGly (GVQWG; printed: GlyValGlnTrpGly) | 12000 days
GlyProGlnGluGly (GPQEG; printed: GlyProGlnGluGly) | 6800 days
GlyLysGlnAspGly (GKQDG; printed: GlyLysGlnAspGly) | 5900 days
GlyHisGlnThrGly (GHQTG; printed: GlyHisGlnThrGly) | 5500 days
